No end group written: not given here. *: point of attachment. Biotin = O=C1N[C@H]2[C@H](CS[C@H]2CCCCC(=O)*)N1
Experiments:
[1] = molecular target: Aβ1-40 amyloid (amyloid form of the Aβ1-40 peptide); test: ELISA on immobilized Aβ1-40 amyloid, FIG. 5
[2] = molecular target: Aβ1-40 amyloid (amyloid form of the Aβ1-40 peptide); test: ELISA on immobilized Aβ1-40 amyloid, streptavidin-alkaline phosphatase detection

Row | Binder | concentration below which no significant binding was seen [1] | Kd [2]
1 | Biotin-DWGKGGRWRLWPGASGKTEA | > 5 µM | –
2 | Biotin-AECDWGKGGRWRLWPGASGKTEACGP (also: flanking cysteines can form a disulfide bond) | – | 320 nM

From US20070093415A1
